Measurements from publication PMC6899989.
Blank lines part the entries; values can stand above or below the substance they belong to.

What was measured:
[1] = molecular target: N-terminal His6-tagged RpPpsR2 (gene repressor from Rhodopseudomonas palustris) (Rhodopseudomonas palustris); experiment: SEC; RpPpsR2 in 5 mM DTT
[2] = molecular target: RpBphP1, sample used for size exclusion chromatography (synthesised gene) (Rhodopseudomonas palustris); experiment: SEC; Superose 12 10/300 GL, 200 μL at 1-4 mg/mL, 5 mM TrisHCl pH 8, 10 mM NaCl; in the dark (Pfr state)
[3] = molecular target: RpBphP1, sample used for size exclusion chromatography (synthesised gene) (Rhodopseudomonas palustris); experiment: SEC; Superose 12 10/300 GL, 200 μL at 1-4 mg/mL, 5 mM TrisHCl pH 8, 10 mM NaCl; after illumination with 760 nm light for 5 min (Pr state)
[4] = molecular target: full-length RpBphP1, SAXS sample (gene PCR amplified from Rps. palustris strain 2.1.6, in pET28a) (Rhodopseudomonas palustris); experiment: SAXS; 5 mM Tris pH 8, 1 and 4 mg/mL, 8 °C; continuous illumination with 760 nm light (Pr state); mass by SAXS MoW2, ab-initio envelopes
[5] = molecular target: full-length RpBphP1, SAXS sample (gene PCR amplified from Rps. palustris strain 2.1.6, in pET28a) (Rhodopseudomonas palustris); experiment: SAXS; 5 mM Tris pH 8, 1 and 4 mg/mL, 8 °C; dark-purified protein measured in darkness (Pfr state); mass by SAXS MoW2, ab-initio envelopes
[6] = molecular target: N-terminal His6-tagged RpPpsR2 (gene repressor from Rhodopseudomonas palustris) (Rhodopseudomonas palustris); experiment: pull-down; Ni(II)-affinity chromatography on 1 mL His-Trap HP; His6-RpPpsR2 mixed 1:4 with untagged RpBphP1 or RpBphP1ΔHOS; illuminated for 5 min with 760 nm light (Pr state); imidazole elution monitored at 280 and 400 nm; SDS/PAGE scan of peak BP

stoichiometry N [1]: 2
Substance: N-terminal His6-tagged RpPpsR2 (gene repressor from Rhodopseudomonas palustris) (natural protein)

stoichiometry N [2]: 2
stoichiometry N [3]: 2
Substance: RpBphP1, sample used for size exclusion chromatography (synthesised gene) (natural protein)

stoichiometry N [4]: 2
stoichiometry N [5]: 2
Substance: full-length RpBphP1, SAXS sample (gene PCR amplified from Rps. palustris strain 2.1.6, in pET28a) (natural protein)

stoichiometry N (RpBphP1 per RpPpsR2) [6]: 2
Substance: untagged full-length RpBphP1 (bacteriophytochrome from Rhodopseudomonas palustris) (natural protein)
